The DeepSol protein solubility set

Experiment: soluble on expression in E. coli; label from the status in PepcDB or PDB records

Row | Sequence | soluble on expression in E. coli
1 | MGSDKIHHHHHHMPEFNYQKAFPLKKDPTPYKLISTDYVSTIEVDGRKILKIDPKALELVAEKALADVSFYLRSSHLEKLAKIIKDPEATDNDRFVAYTLLQNASTAGEGKLPSCQDTGTAIVMGKKGENVWTGANDEEALSKGIYNTYQEKNLRYSQVVPITMFEEKNSGTNLPAQIDIYAEQGNEYKFLFMAKGGGSANKTYLYQQTKALLNENSLAEFVKNKIKDLGTSACPPYHLALVIGGTSAEANLKAVKLASAGYYDELPTEGNMGGQAFRDLEWEEKVQLICQESLIGAQFGGKYFTHDVKVIRLPRHAASCPVGIGVSCSADRNIKAKITEEGIFIEALETNPEKFLPAQAPHLEKAVEVDLNQPMADVLKLLSQYPIKTRLKLKGTLIVARDIAHAKIKELLDAGKPMPEYFKNHPVYYAGPAKTPEGMPSGSFGPTTAGRMDSYVNLFQSQGGSMIMLAKGNRSKAVTDACKEFGGFYLGSIGGPAAILAKENIKSVEVVDFEELGMEAVRKIEVVDFPAFIICDDKGNDFFANL | not soluble
2 | MNLLKTIEKVKANWGGKYFSIEFVKNPKKVVRDWRNSGGIVVHLTMYGIPIDNIMEKIINKNTKILVVVGSEKVEGWYYYNSDYNIAIGNQPHSEVAALAIFLDRIYKGGELNIQFSDAKLSIIPQERGKKVRKNE | soluble
3 | SNDLSQWSISKDSNLDSPWIEGIPGCGIPGAGSLVEHIDRQILVLQRDGRYIVGLLRSYDQYANLVLENTFERFVLNDSYCDEPLGVFIIRGENVALLGEVDGEKESQWLSHLHTVSLEDTKKTIRGKRQATKALLHSQPERVEWTFYDDAFF | soluble
4 | MHSAKNEKCNACGGYRFSVNDGFKYCDRCGALFENFEELEEEEGGLQQTVGQGKVKVRKNDDQKRVRNNAAPVNLPKAQVMREALEKRSDFLQQQAIKGEELELPHDATPDYLYRLALRLFSFTQILAKSGHILVHELNFESRVQENILATFQKYLAHCQVAFCHSEQCGNDEHLRFVAVMENLRYEQEEREEKQRKRMAKRGKGVNALSKSAAAWTLLTQGNITEHLDIASDEDGDQDAQGGQQLDDLTLETTQNPDESIRVNDTTMGFVRKVTTALSKEALRRASQLILNLEMLVAILHSALMSSGYQTILTSDVVRWIREDRFRISRRSIRLIRQSQPERMKQGEVVKPTIVDYAEPFLRFPLYEIMRTCTIFHQSLKLASSMAPQSFESMSARLVDNLNLPSDILSRMLILESIIPCDVSPQLLKQVDVDMGYNCGQLAAMSPNVYYSGFLTSFGRKERGTQDADFCDEVLLSPDAKLIAYLLLTLRLTFQLDNAQCALQDDQYFDVDSWIHQLEMRIKCWQGHNMSLVMRSSSHVPEMVVDPPFGTNYLFHQEKGAPQVSCRRRQAGFQKCIPTEMSFNSTSTLPTVFDVRHMGLLTERCQMEALISPVKFQRTVLGNEIERDPLTFENVDRQSKNTFFKHFSAFKTTESCDTFEEYFPCAKNYLLFKRPDWIQNCTARQTHFNPVTGPIRFYLSNQSCDDLLGTAATSFSRRFQFLLDALSLIIGEDKKAVYAAFVMLEMHLTSSERIQSIRDDLLTSSPITLKCQKFRNSTHHIPRKYGVISEVPIDRIENLRYFRLSRQFFEHEEMPTTINMELIDYRNQEIRDSVTETEVQRAQNRIMKLCYEFEQFFGILAVKFW | soluble
5 | METNIVEVENFVQQSEERRGSAFTQEVKRYLERYPNTQYVDVLLTDLNGCFRGKRIPVSSLKKLEKGCYFPASVFAMDILGNVVEEAGLGQEMGEPDRTCVPVLGSLTPSAADPEFIGQMLLTMVDEDGAPFDVEPRNVLNRLWQQLRQRGLFPVVAVELEFYLLDRQRDAEGYLQPPCAPGTDDRNTQSQVYSVDNLNHFADVLNDIDELAQLQLIPADGAVAEASPGQFEINLYHTDNVLEACDDALALKRLVRLMAEKHKMHATFMAKPYEEHAGSGMHIHISMQNNRGENVLSDAEGEDSPLLKKMLAGMIDLMPSSMALLAPNVNSYRRFQPGMYVPTQASWGHNNRTVALRIPCGDRHNHRVEYRVAGADANPYLVMAAIFAGILHGLDNELPLQEEVEGNGLEQEGLPFPIRQSDALGEFIENDHLRRYLGERFCHVYHACKNDELLQFERLITETEIEWMLKNA | soluble
6 | MGSDKIHHHHHHAADKRIDGNGNPETREIKISDYDEITFVGSADFEYEQSDKAPYLSVTIDENLFDYLVTEVEGGTLKIYPKSIKKGFNNNSYDLRPTVYKIKSNSKELKELNTVGSGSFIISKPTKVNRMEINMAGSGNVELRGPVKGYKLECNMAGSGNIIAKDIQLDNLSCSLASSGEIEVIGTVDRASFNVAGSGEIKAFDCQARKAECNIASSGEISVYATQILDANIVGSGEIHYKGDPEISKSIMGSGSINKVK | not soluble
7 | MSLKGYYSNKISLEDLNKNIEDKKEQTIYFYQTSCVHCQKVSPIVVPLAKDLNVDMKVIDIENLNEPWDKYNIQGTPTIIHFKDGKEVSRISGEQSKDKFKEWFEQTKKEGHHHHHH | soluble
8 | MWDLETDRVLNEIKTRNARKVLFQAPEGLKRAVEKEIEFLKTKIDAELMIWGETCFGACDLCDEEVTILGIDLIIHYGHEELSYVHSEIPVVFVHAYFKENEYFLKDVENILEKMENPTVTTTIQFKKALSKFNPVVILGCRAPVDNAENILFVGTGRFHPLMMAYKLKKTVKIYNPITREISEISDQEIKKLIKLRIGRVSKLLLNPPKKIGVVLSTKKGQCRLKSFENVIELLKKNNIEYIPIILNNLSQSYLFYKVDAYVICACPRIVMDDYQNYESTLLTPEELRMYLSNDFEYKFDEILENNFYLEHHHHHH | not soluble
9 | DVIELTDDSFDKNVLDSEDVWMVEFYAPWCGHCKNLEPEWAAAASEVKEQTKGKVKLAAVDATVNQVLASRYGIRGFPTIKIFQKGESPVDYDGGRTRSDIVSRALDLFSDNAPPPELLE | soluble
10 | TSKINWNISVNATTYKNKILTLPEEKRESGIWNGIFKMVEGGSYYDYYIKEWAGVDPEDGKAMWYKDVTDKNGNTTKETTKTYSEATDYKAGCALPDLYGGISTSLNAYGFDFSIALTYQLGGQGYDYTYATLMNSAQGAGTNYHNDILNAWTPENKYTDVPKLNAKESNNNSTSTRFLTSTSYLSLQNISVGYTLPKNWIAKLGCESLRVYFVADNVALLSARKGYDPRTNWNGESNYNYSALRSISGGITMKF | not soluble
11 | MLTVDQVKELVGEIKDPIIDVPLKETEGIVEVSIKEEKEHVSVKLAMAQLGGAPQLDLQMAVVNALKENGAKTVGIRFETLPEEKVNQFKPKEENKPKTIEGLLSQNNPVEFIAIASGKGGVGKSTVAVNLAVALAREGKKVGLVDADIYGFSVPDMMGIDEKPGIKGKEVIPVERHGVKVISMAFFVEENAPVIWRGPMLGKMLTNFFTEVKWGDIEYLILDLPPGTGDVALDVHTMLPSSKEIIVTTPHPTAAFVAARAGAMAKHTDHSILGVIENMSYFESKETGNKEYVFGKGGGTKLADELNTQLLGELPLEQPSWNPKDFAPSIYQSDDRLGKIYSSIAQKVIAATNKLEHHHHHH | soluble
12 | MGSDKIHHHHHHMRRDVFIETRNVMDFRQKVRALEDFSGEPGFALVFGQAGRGKTETARHYHAMNGGIFLRVMQGWSQCAFLQELCFQVCGLRPRSSATCKAKIIEALDSMPQTLFVDEADRLHVDRVEDLRDVFDLTSSTVVLIGEQELRGLLSTRRRIWSRVKQVVEFGPVAEEDVAILGDEAAGLDIAPEACSQIVRLADGDFRLVWSFIHQLELTAKTHGIQQINTELVARVSKLVASWRQQ | not soluble
13 | ITELTNIHLIKGNLQANSKNEVFAELAQMLLENNRISNKEDFLNDIEIRERLSVTSMDGIAYPHSKSKAVTKPAIAVGVKHEGIEYGDEEGIKPTVFFMIASPDNGADHHIYVLQELFGKFSEEFIEDIHNAKNEHQILNISIQS | soluble
14 | MSLTNKKNLRVVALAPTGRYFASIISSLEILETAAEFAEFQGFMTHVVTPNNRPLIGRGGISVQPTAQWQSFDFTNILIIGSIGDPLESLDNIDPALFDWIRELHLKGSKIVAIDTGIFVVAKAGLLQQNKAVMHSYFAHLFGELFPEIMLMTEQKALIDGNVYLSSGPYSHSSVMLEIVEEYFGKHTRNLGNQFLSTIESSGNSHSYCDVFRYMQHRDELILKIQKWILTTDLDIVSISDLANEACLSERQLKRRFKEATSISPLKFIQLGRLSFAKELLRSTKLSIDEVASRSGYVDTQFFRQIFKRENDCSPLEYRKRNQVKAEGHHHHHH | soluble
15 | GMKVLPVKQYLIMENYNPDTIFNGIVKINSNEKTFDDEILAQIGGALHDIDESWELLLSFANTIRSNWEIKTPAYDIVRLIVKKLPYSSDIKDYIEEGLGNKNITLTMLTVRILVNCFNNENWGVKLLESNQVYKSIFETIDTEFSQASAKQSQNLAIAVSTLIFNYSALVTKGNSDLELLPIVADAINTKYGPLEEYQECEEAAYRLTVAYGNLATVEPTLRQFANSVTWLANIKRSYGNVPRFKDIFDDLS | soluble
16 | MGSDKIHHHHHHMPGNSSGVAAVERAVSMLEAFTDVDYSLTLGELARRTELDKSTVLRIARSLAKSSMLVRNDDASWRLGPKLVRLGGLYQSTFKSSAIVEPLLAQISDESGESAAVYVKEGVVRVCLHRHDSTQSIRHSARVGDAMPLDRGAPGRVILAFTGSSGKLYDDIRAKGFHVTIGERDPQVASVAVPVYRDGQALFGSLALTGPPSRFNEEAVSKNLEILRVAARKLSAALGGDPG | not soluble
17 | EPQVRESLGRDVMVVVDLSGSMAEPDFTSRTGEKISRLDAAKEVLTEFVQSRKGDRLGLVLFGDAAFVQTPFTADQKVWLELLNQTDVAMAGQSTHLGDAIGLAIKVFEQSDKSRGALEQDQNREKVAIVLTDGNDTGSFVEPIDAAKVAKAKGVRVHVIAMGDPETIGETALDMDTIHRIAKESGGEAFEALNRDELSAAYDEIGKLEPQLYESTTYRPKQSLHH | not soluble
18 | GSPGISGGGGGILDMADDDVLFEDVYELCEVIGKGAFSVVRRCINRETGQQFAVKIVDVAKFTSSPGLSTEDLKREASICHMLKHPHIVELLETYSSDGMLYMVFEFMDGADLCFEIVKRADAGFVYSEAVASHYMRQILEALRYCHDNNIIHRDVKPENVLLASKENSAPVKLGDFGVAIQLGESGLVAGGRVGTPHFMAPEVVKREPYGKPVDVWGCGVILFILLSGCLPFYGTKERLFEGIIKGKYKMNPRQWSHISESAKDLVRRMLMLDPAERITVYEALNHPWLKERDRYAYKIHLPETVEQLRKFNARRKLKGAVLAAVSSHKFNSFYGDPPEELPDFSEDPTS | soluble
19 | MKLINTTWTHQELVNNQLDNTDAFLVETYSAGNTDVVFTQAPKHYELLISNKHRAVKDNELEVIREFFLKRKIDKDIVLMDKLRTVHTDKLIEISFPTTV | soluble
20 | MGSDKIHHHHHHGNLEEMNIDPDNATQTHPKLLLTQICMNAFKRGTDGMYATKKVIQADGESADQYYKWTRGSFGYYDNLRNVQKMGEEAERVNAPVYTALTKFFRAYYFYELTLRFGDIPYSQALKGEKEEIYTPEYDAQEDVFAGILQELREADEILANDASVIDGDIIYNGNSTQWRKLINSFRLKVLMTLSNHTTVGNINIASEFKNIATNSPLMNSLADNGQLVYLDQQGNRYPQFNAQWSGYYMDDTFIQRMRERRDPRLFIFSAQTNKGKTEGKPIDDFSSYEGGDPAAPYSDAIIKVSEGTISPINDRFRTDPIVEPTMLMGYAELQQILAEAVVRGWISGNAQTYYEKGIRASFSFYETHAKDYAGYLNENAVAQYLKEPLVDFTQASGTEEQIERIIMQKYLVTFYQGNWDSFYEQLRTGYPDFRRPAGTEIPKRWMYPQGEYDNNGTNVETAITRQFGAGNDKINQATWWQKKS | not soluble
